Results taken from the supplement of paper PMC10201428.
± gives the standard deviation of the averaged measurements.

What was measured:
[1] = test system: VchCAST RNA-guided transposition machinery (E. coli BL21(DE3) host, lacZ target); test: relative integration efficiency (T-LR orientation) vs wild-type transposon end (log2 (normalized fold change)); transposon end mutated: left end; higher = more efficient transposition
Procedure, shortened: (§1)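 Co-transformation of E. coli BL21(DE3) combined a pUC57 mini-transposon donor, holding barcoded pools of 1549 left-end or 1849 right-end variants, with a T7-driven plasmid encoding a CRISPR array, tniQ-cas8-cas7-cas6 and tnsA-tnsB-tnsC. After plating with 0.1 mM IPTG at 37°C for 18 h, input plasmids and genomic integration junctions were PCR-amplified and Illumina-sequenced across two biological output replicates, with four reference barcodes. Relative integration efficiency is the normalised, log-transformed output/input barcode fold change.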

[2] = test system: VchCAST RNA-guided transposition machinery (E. coli BL21(DE3) host, lacZ target); test: relative integration efficiency (T-RL orientation) vs wild-type transposon end (log2 (normalized fold change)); transposon end mutated: left end; higher = more efficient transposition
Procedure, shortened: as §1

Row | Sequence | relative integration efficiency (log2) [1] | relative integration efficiency (log2) [2]
1 | AATGTTGTTGATGCAACCATAAAGTGATATTTAATAATTATTTATAATCAGCAACTTAACCACAACCATATATTGATATCTCACAAAACAACCATAAGTTGATATTTTCAAAATGTGAATCGAGTATTTCAGCAAAACTACTGCAGTAAGAA | -2.53 ± 1.4 | -5.07 ± 0.94
2 | AATGTTGTTGATGCAACCATAAAGTGATATTTAATAATTATTTATAATCAGCAACTTAACCACAACCATATATTGATATCTCCAAAAACAAAACAACCATAAGTTGATATTTTTGTGAATCGAGTATTTCAGCAAAACTACTGCAGTAAGAA | -2.36 ± 0.59 | -3.07 ± 1
3 | AATGTTGTTGATGCAACCATAAAGTGATATTTAATAATTATTTATAATCAGCAACTTAACCACACAACCATATATTGATATCTCAAAACAAAACAACCATAAGTTGATATTTTTGTGAATCGAGTATTTCAGCAAAACTACTGCAGTAAGAA | -3.44 ± 2.9 | -2.19 ± 0.45
4 | AATGTTGTTGATGCAACCATAAAGTGATATTTAATAATTATTTATAATCAGCAACTTAACCACACAACCATATATTGATATCTCACAAAACAACCATAAGTTGATATTTTTGTGAATCGAGTATTTCAGCAAAACTACTGCAGTAAGAAAGT | -2.81 ± 1.1 | -4.27 ± 1.1
5 | AATGTTGTTGATGCAACCATAAAGTGATATTTAATAATTATTTATAATCAGCAACTTAACCACACCCACCAACGCGCGGTCGCGAGACACCCCACCAACGCCTGGTCGCGGGGGTGTCCGATCTGATTTCAGCAAAACTACTGCAGTAAGAA | -3.59 ± 0.93 | -6.25 ± 1.4
6 | AATGTTGTTGATGCAACCATAAAGTGATATTTAATAATTATTTATAATCAGCAACTTACAACCATATATTGATATCTCACAAAACAACCATAAGTTGATATTTTACCACAAAATGTGAATCGAGTATTTCAGCAAAACTACTGCAGTAAGAA | -1.12 ± 1.1 | -1 ± 0.61
7 | AATGTTGTTGATGCAACCATAAAGTGATATTTAATAATTATTTATAATCAGCAACTTACAACCATATATTGATATCTCACAAAACAACCATAAGTTGATATTTTTGTGAATCGAGTATTTCAGCAAAACTACTGCAGTAAGAAAGTTACTTC | -0.998 ± 0.78 | -0.809 ± 0.49
8 | AATGTTGTTGATGCAACCATAAAGTGATATTTAATAATTATTTATAATCAGCAACTTACAACCATATATTGATATCTCACCACAAAAACAAAACAACCATAAGTTGATATTTTTGTGAATCGAGTATTTCAGCAAAACTACTGCAGTAAGAA | 0.226 ± 1.1 | -0.417 ± 0.35
9 | AATGTTGTTGATGCAACCATAAAGTGATATTTAATAATTATTTATAATCAGCAACTTCAACCATATATTGATATCTCAACCACAAAAACAAAACAACCATAAGTTGATATTTTTGTGAATCGAGTATTTCAGCAAAACTACTGCAGTAAGAA | -2.92 ± 1.7 | -2.25 ± 0.7
10 | AATGTTGTTGATGCAACCATAAAGTGATATTTAATAATTATTTATAATCAGCAACTTCAACCATATATTGATATCTCACAAAACAACCATAAGTTGATATTTTAACCACAAAATGTGAATCGAGTATTTCAGCAAAACTACTGCAGTAAGAA | -1.03 ± 0.79 | -0.834 ± 0.54
11 | AATGTTGTTGATGCAACCATAAAGTGATATTTAATAATTATTTATAATCAGCAACTTCAACCATATATTGATATCTCACAAAACAACCATAAGTTGATATTTTTGTGAATCGAGTATTTCAGCAAAACTACTGCAGTAAGAAAGTTACTTCG | -0.903 ± 0.24 | -1.06 ± 0.45
12 | AATGTTGTTGATGCAACCATAAAGTGATATTTAATAATTATTTATAATCAGCACAACCATATATTGATATCTCACTTAACCACAAAAACAAAACAACCATAAGTTGATATTTTTGTGAATCGAGTATTTCAGCAAAACTACTGCAGTAAGAA | < -10 | -6.85 ± 0.48
13 | AATGTTGTTGATGCAACCATAAAGTGATATTTAATAATTATTTATAATCAGCACAGGCCAACACCCCACCAACGCGCGGTCGCGAGACACCCCACCAACGCCTGGTCGCGGGGGTGTCCGATCTGATTTCAGCAAAACTACTGCAGTAAGAA | -3.578 ± 0.033 | -7.2 ± 1.5
14 | AATGTTGTTGATGCAACCATAAAGTGATATTTAATAATTATTTATAATCAGCCAACCATATATTGATATCTCACAAAACAACCATAAGTTGATATTTTTGTGAATCGAGTATTTCAGCAAAACTACTGCAGTAAGAAAGTTACTTCGTGGTA | -4.33 ± 0.31 | -7.71 ± 0.64
15 | AATGTTGTTGATGCAACCATAAAGTGATATTTAATAATTATTTATAATCAGCCCAGGCCAACACCCCACCAACGCGCGGTCGCGAGACACCCCACCAACGCCTGGTCGCGGGGGTGTCCGATCTGATTTCAGCAAAACTACTGCAGTAAGAA | -4.09 ± 1.1 | -6.41 ± 1.4
16 | AATGTTGTTGATGCAACCATAAAGTGATATTTAATAATTATTTATAATCCTACCAGGCCAACACCCCACCAACGCGCGGTCGCGAGACACCCCACCAACGCCTGGTCGCGGGGGTGTCCGATCTGATTTCAGCAAAACTACTGCAGTAAGAA | -5.08 ± 3.7 | -6.45 ± 1.8
17 | AATGTTGTTGATGCAACCATAAAGTGATATTTAATAATTATTTATACAACCATAAAGTGATATTTAACAACCATATATTGATATCTCACAAAACAACCATAAGTTGATATTTTTGTGAATCGAGTATTTCAGCAAAACTACTGCAGTAAGAA | -4.48 ± 0.05 | -6.31 ± 0.44
18 | AATGTTGTTGATGCAACCATAAAGTGATATTTAATAATTATTTATACAACCATATATTGATATCTCATCAGCAACTTAACCACAAAAACAAAACAACCATAAGTTGATATTTTTGTGAATCGAGTATTTCAGCAAAACTACTGCAGTAAGAA | -1.08 ± 0.46 | -4.35 ± 0.47
19 | AATGTTGTTGATGCAACCATAAAGTGATATTTAATAATTATTTATACGACTACCAGGCCAACACCCCACCAACGCGCGGTCGCGAGACACCCCACCAACGCCTGGTCGCGGGGGTGTCCGATCTGATTTCAGCAAAACTACTGCAGTAAGAA | -4.47 ± 0.46 | -6.45 ± 1.3
20 | AATGTTGTTGATGCAACCATAAAGTGATATTTAATAATTATTTATCAACCATAAAGTGATATTTAACCAACCATATATTGATATCTCACAAAACAACCATAAGTTGATATTTTTGTGAATCGAGTATTTCAGCAAAACTACTGCAGTAAGAA | -2.57 ± 2 | -6.32 ± 2.1
21 | AATGTTGTTGATGCAACCATAAAGTGATATTTAATAATTATTTATCAACCATATATTGATATCTCAATCAGCAACTTAACCACAAAAACAAAACAACCATAAGTTGATATTTTTGTGAATCGAGTATTTCAGCAAAACTACTGCAGTAAGAA | -2.91 ± 2.7 | -4.61 ± 1.4
22 | AATGTTGTTGATGCAACCATAAAGTGATATTTAATAATTATTTATCAACCATATATTGATATCTCACAAAACAACCATAAGTTGATATTTTTGTGAATCGAGTATTTCAGCAAAACTACTGCAGTAAGAAAGTTACTTCGTGGTATGGGAGG | -3.55 ± 2.2 | -6.15 ± 0.83
23 | AATGTTGTTGATGCAACCATAAAGTGATATTTAATAATTATTTCAACCATATATTGATATCTCACAAAACAACCATAAGTTGATATTTTTGTGAATCGAGTATTTCAGCAAAACTACTGCAGTAAGAAAGTTACTTCGTGGTATGGGAGGAT | -3.12 ± 1.5 | -6.94 ± 1.9
24 | AATGTTGTTGATGCAACCATAAAGTGATATTTAATAATTATTTCGAACTAGTTAACTAGTACGCAAACAACCATATATTGATATCTCACAAAACAACCATAAGTTGATATTTTTGTGAATCGAGTATTTCAGCAAAACTACTGCAGTAAGAA | < -10 | -4.69 ± 1.4
25 | AATGTTGTTGATGCAACCATAAAGTGATATTTAATAATTATTTCGCCGACTACCAGGCCAACACCCCACCAACGCGCGGTCGCGAGACACCCCACCAACGCCTGGTCGCGGGGGTGTCCGATCTGATTTCAGCAAAACTACTGCAGTAAGAA | -6.08 ± 3.8 | -7.27 ± 1.6
26 | AATGTTGTTGATGCAACCATAAAGTGATATTTAATAATTCAACCATATATTGATATCTCATTTATAATCAGCAACTTAACCACAAAAACAAAACAACCATAAGTTGATATTTTTGTGAATCGAGTATTTCAGCAAAACTACTGCAGTAAGAA | -2.63 ± 2.9 | -3.05 ± 1.3
27 | AATGTTGTTGATGCAACCATAAAGTGATATTTAATAATTGGCAGTGAGCGCAACGCAATTCACAAAACAACCATATATTGATATCTCACAAAACAACCATAAGTTGATATTTTTGTGAATCGAGTATTTCAGCAAAACTACTGCAGTAAGAA | -3.88 ± 2.9 | -2.76 ± 1
28 | AATGTTGTTGATGCAACCATAAAGTGATATTTAATACAACCATAAAGTGATATTTAACTTAACCACACAACCATATATTGATATCTCACAAAACAACCATAAGTTGATATTTTTGTGAATCGAGTATTTCAGCAAAACTACTGCAGTAAGAA | -3.38 ± 1.9 | -5.26 ± 0.97
29 | AATGTTGTTGATGCAACCATAAAGTGATATTTAATACAACCATATATTGATATCTCACAAAACAACCATAAGTTGATATTTTTGTGAATCGAGTATTTCAGCAAAACTACTGCAGTAAGAAAGTTACTTCGTGGTATGGGAGGATCAAGGAG | -2.15 ± 1.6 | -4.83 ± 1.7
